These results are taken from paper doi:10.1101/2025.11.26.690573.

The target of assay [1] is biotinylated N8~CRL1 with wild type RBX1 (UniProt Q15843). Kind of assay: BLI; CSN and N8~CRL1 in a saturating amount of CSN5i-3; who was immobilised not given.
Assay [2] shares this target. Kind of assay: BLI; CSN and N8~CRL1 in a saturating amount of CSN5i-1a; who was immobilised not given.

“COP9 signalosome (CSN), eight-subunit complex, tag-free (from UniProt Q13098 1-491; P61201 1-443; Q9UNS2 1-409; Q9BT78 1-406; Q92905 1-334; Q7L5N1 1-327; Q9H9Q2 1-239; Q99627 1-209)”: the KD with CSN5i-3 in assay [1] stood at 0.026 µM. In addition, in assay [2], the KD with CSN5i-1a came to 1.8 µM.
